The supplement of paper PMC10724198
± gives the standard deviation of the averaged measurements.

system: Saccharomyces cerevisiae; assay: protein stability index of tFT-peptide fusion (C-terminal peptide) (PSI (0-1 scale)); higher = more stable (slower turnover); conditions: genetic background: wild type; temperature: 30 C
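Also: PSI is a weighted mean of sequencing reads over stability bins, variants kept only with over 10 reads, mCherry proximal and sfGFP distal, peptide attached via GGGS linker.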

Sequence | protein stability index
WANGEFSLGCGG | 0.712 ± 0.017
WCGWGGVACLLL | 0.681 ± 0.023
WCLNMLLIPSMY | 0.605 ± 0.021
WCPGAGGAVVVV | 0.658 ± 0.073
WCWVGRFVGLVR | 0.447 ± 0.11
WDEDGIFDAGGA | 0.6 ± 0.041
WDHGDHTAMVSI | 0.683 ± 0.019
WEAPCGGTLVGR | 0.697 ± 0.048
WEWFKWRDHNRY | 0.803 ± 0.037
WFCFGSFILCLL | 0.492 ± 0.028
WFLLTSSTSRPP | 0.737 ± 0.059
WGAAGRAGTERH | 0.682 ± 0.029
WGCVGVVGLFSG | 0.656 ± 0.047
WGEKTRKVQGCG | 0.695 ± 0.066
WGGGGGRKVSVG | 0.67 ± 0.082
WGGGGGWSGACL | 0.6909 ± 0.0059
WGGGGLRGGWDG | 0.738 ± 0.03
WGGGGLVVFGWK | 0.698 ± 0.011
WGGGGVRGGMGG | 0.781 ± 0.043
WGGGVLRRRVGA | 0.752 ± 0.055
WGGLSRCAGVWL | 0.632 ± 0.034
WGGSGGREPGGS | 0.753 ± 0.066
WGGYSLKFRTRR | 0.705 ± 0.0025
WGLGGVCAVRGS | 0.575 ± 0.094
WGLGLLGGCWGV | 0.679 ± 0.09

Sequence | protein stability index
WGPGGVAWGAWW | 0.7837 ± 0.0022
WGPPPPYSPFSL | 0.713 ± 0.0089
WGPVPWWFGWMG | 0.678 ± 0.027
WGRCLGWAGPAG | 0.788 ± 0.11
WGRCVRGGRPWG | 0.567 ± 0.021
WGRGLESVKGGG | 0.727 ± 0.018
WGTSGAMRGTEG | 0.683 ± 0.022
WGVGWGMVEGWR | 0.701 ± 0.019
WGVSVVEGGRSG | 0.736 ± 0.093
WGWGGGRDGCGV | 0.643 ± 0.1
WGWGGVRGGMGG | 0.796 ± 0.08
WGWVLVGVGGLV | 0.576 ± 0.091
WHEHGGVGTYFI | 0.6743 ± 0.0043
WIFHHSKTTLAP | 0.7158 ± 0.0052
WKGEMRDDGGRR | 0.687 ± 0.041
WKGEREKQGKEG | 0.589 ± 0.084
WKKDTKTKKKKN | 0.695 ± 0.034
WKKSEKTEHEQI | 0.653 ± 0.12
WKQKRGTHNIKD | 0.722 ± 0.011
WLFLCWCFFCCL | 0.597 ± 0.12
WLGLGGARGCML | 0.745 ± 0.057
WLNMKFRTLCGS | 0.634 ± 0.038
WLPRPHPPLRPA | 0.724 ± 0.08
WLRPRSFSVVAT | 0.52821 ± 0.00016
WLSMLLTVAPHH | 0.64278 ± 0.00026

Sequence | protein stability index
WLTCICSSVAPL | 0.698 ± 0.042
WLVGEWPGRWGR | 0.728 ± 0.037
WMSFLARVVTFE | 0.716 ± 0.025
WMSVCCRSALVD | 0.65 ± 0.011
WMTFKKLQCNRT | 0.682 ± 0.027
WNGIDQSMSGRR | 0.694 ± 0.099
WPHAPSLPRFSG | 0.69 ± 0.018
WPLSYLPLSSPP | 0.701 ± 0.01
WPRVCPFSLYDA | 0.723 ± 0.012
WRQRLKTNNITT | 0.733 ± 0.018
WRRPKAGRHAPC | 0.685 ± 0.0065
WRSGRGRCAVSQ | 0.721 ± 0.045
WRTPVCSPFLLG | 0.691 ± 0.0053
WSCTPRTPPPPR | 0.7925 ± 0.002
WSESVKEASFTS | 0.756 ± 0.028
WSFGRWGGAGAR | 0.629 ± 0.044
WSFSSGCWGYVG | 0.6281 ± 0.0036
WSGGAGGGGRLG | 0.645 ± 0.088
WSIWRLPSFEWV | 0.741 ± 0.04
WSKEQRRGGCGQ | 0.714 ± 0.015
WSLIARYSPCHF | 0.67 ± 0.027
WSRGGVLGVCCG | 0.536 ± 0.031
WSSRGAIDSARH | 0.762 ± 0.019
WSTGEKMALHGR | 0.787 ± 0.12
WSTVCKIAGAID | 0.706 ± 0.028

Sequence | protein stability index
WTSPRISPRSPL | 0.726 ± 0.014
WVEACVCRGFVG | 0.698 ± 0.059
WVGAVVGAGGRW | 0.614 ± 0.089
WVGFRTFGVWGV | 0.707 ± 0.063
WVGGDINFWWGG | 0.747 ± 0.12
WVGGVACGAGGG | 0.62 ± 0.069
WVKPVRAWTILR | 0.605 ± 0.025
WVPGPLEPSLVL | 0.774 ± 0.0096
WVPLGPFCLPLF | 0.724 ± 0.1
WVPPPPYSPFSL | 0.695 ± 0.027
WVRIGVEFGWGE | 0.689 ± 0.11
WVRQYFRGLQLR | 0.595 ± 0.074
WVSWGCCSFLLT | 0.616 ± 0.0092
WVVSLTNSLAHV | 0.581 ± 0.013
WVVSRGPFAVGP | 0.68 ± 0.021
WWEVSFRVGAVR | 0.648 ± 0.025
WWGRWPGLAGGR | 0.716 ± 0.068
WWKLSGTGWGTL | 0.73 ± 0.022
WWLRLVLCGWEW | 0.721 ± 0.074
WWSFVGACDGVG | 0.549 ± 0.012
WWWGGVRGGMGG | 0.749 ± 0.026
YADAGRVSLWIA | 0.5512 ± 0.0054
YAERNKKTLKDT | 0.638 ± 0.011
YALWRFRSLADV | 0.695 ± 0.1
YCGGRCGGWEIG | 0.698 ± 0.012

Sequence | protein stability index
YCSITGIRLLVG | 0.579 ± 0.023
YDAGWVDVLLVI | 0.6419 ± 0.0064
YDGGLAALQVLL | 0.68 ± 0.051
YDIAVDAEIDPY | 0.685 ± 0.0081
YEKWIKKCNKEE | 0.689 ± 0.068
YEQLSGHPPVVR | 0.7236 ± 0.0014
YFGGMGPRGRER | 0.683 ± 0.016
YFSQPLGPSPLL | 0.812 ± 0.074
YFWTHLISIPDV | 0.676 ± 0.062
YGCSRALGCMGG | 0.596 ± 0.14
YGFLFRFLSPNP | 0.6788 ± 0.0038
YGGLFFLVSLPP | 0.566 ± 0.0082
YGIILPIRVSGF | 0.631 ± 0.035
YGSGSDGRGGPG | 0.662 ± 0.0077
YGVCFKAFQFKL | 0.676 ± 0.056
YHALNSLHPPSP | 0.69 ± 0.027
YHNFLPRPPRKR | 0.662 ± 0.077
YIIEGKRKYNRI | 0.682 ± 0.029
YILLGEFAGVFP | 0.689 ± 0.17
YINIKKKKINKT | 0.688 ± 0.039
YINVEPRITKNT | 0.709 ± 0.0085
YIPPGNTTVPSC | 0.694 ± 0.038
YKPKGSKKFKNK | 0.624 ± 0.029
YKSELSIPYAPV | 0.687 ± 0.015
YLLDTLTAAREI | 0.673 ± 0.016

Sequence | protein stability index
YLLLVPDTRTLL | 0.683 ± 0.0079
YLLYSDSLCFVT | 0.659 ± 0.03
YLPDPVVSLAHS | 0.656 ± 0.063
YLYLKSRDTFLN | 0.7094 ± 0.0013
YMGDFRPAFAVT | 0.64 ± 0.046
YMLSMIYEIEMM | 0.578 ± 0.04
YNRALPGGQAML | 0.795 ± 0.039
YPHPPRPSNQLF | 0.615 ± 0.0079
YPIRPRYSPAGN | 0.721 ± 0.043
YPPCSPGPLAPS | 0.672 ± 0.026
YPPPPLPPPRPP | 0.555 ± 0.015
YPPYPSHSSLHT | 0.6987 ± 0.0062
YPSDLRPPSSPI | 0.7512 ± 0.0041
YPSTESPAGLAL | 0.726 ± 0.025
YPTQSPSPAPPT | 0.644 ± 0.099
YQDDGRRPGFVI | 0.675 ± 0.013
YQDGLCYYFCTT | 0.559 ± 0.02
YQSHFERSGVAR | 0.674 ± 0.077
YRFFGGYWETGW | 0.744 ± 0.033
YRLCEARVQSDN | 0.685 ± 0.022
YRSLFPAPPLHP | 0.6747 ± 0.0026
